Data on 38 substances can be found in patent US20220273789A1.

This assay addresses human IgG (human). Nature of the assay: BLI (Octet), gEgI on Ni-NTA sensor, hIgG in solution. (Biolayer interferometry detects binding as a change in optical thickness at a sensor tip.)

The term Kd denotes the concentration at which binding is half-saturated. The low end stands for tighter binding, the high end for weaker binding. As usually defined, the koff is a measure of how fast the partners let go of each other. The term kon denotes the rate constant with which the complex forms. Substance “HSV2-gE_P317F S338H_gI (from UniProt P89475 21-416; P06764 21-256) (receptor)” displayed a Kd of 339 nM, a Response of 0.182 nm, a koff of 0.00167 s⁻¹ and a kon of 4910 M⁻¹ s⁻¹.

For “HSV2-gE_P317F S338L_gI (from UniProt P89475 21-416; P06764 21-256) (receptor)”, the dissociation constant (Kd) came to 225 nM, the Response was found to be 0.442 nm, the koff was found to be 0.00165 s⁻¹ and the kon turned out to be 7370 M⁻¹ s⁻¹.

“HSV2-gE_P317F V340M_gI (from UniProt P89475 21-416; P06764 21-256) (receptor)”: the Kd turned out to be 291 nM, the Response came out at 0.259 nm, the koff turned out to be 0.00189 s⁻¹ and the kon was determined as 6510 M⁻¹ s⁻¹.

“HSV2-gE_P317F V340R_gI (from UniProt P89475 21-416; P06764 21-256) (receptor)” had a dissociation constant (Kd) of 372 nM, a Response of 0.301 nm, a koff of 0.00218 s⁻¹ and a kon of 5880 M⁻¹ s⁻¹.

“HSV2-gE_P317F V340W_gI (from UniProt P89475 21-416; P06764 21-256) (receptor)” came in with a dissociation constant Kd of 577 nM, a Response of 0.116 nm, a koff of 0.00414 s⁻¹ and a kon of 7170 M⁻¹ s⁻¹.

“HSV2-gE_P317K S338G_gI (from UniProt P89475 21-416; P06764 21-256) (receptor)” yielded a Kd of 238 nM, a Response of 0.198 nm, a koff of 0.00167 s⁻¹ and an on-rate constant (kon) of 7030 M⁻¹ s⁻¹.

For the substance “HSV2-gE_P317K S338H_gI (from UniProt P89475 21-416; P06764 21-256) (receptor)”, the Kd was 338 nM, the Response was 0.146 nm, the koff was 0.00195 s⁻¹ and the association rate constant (kon) came out at 5780 M⁻¹ s⁻¹.

Take “HSV2-gE_P317K S338L_gI (from UniProt P89475 21-416; P06764 21-256) (receptor)”: the Kd was found to be 252 nM, the Response was found to be 0.334 nm, the koff came to 0.0016 s⁻¹ and the kon came out at 6350 M⁻¹ s⁻¹.

The substance “HSV2-gE_P317K V340M_gI (from UniProt P89475 21-416; P06764 21-256) (receptor)” gave a Kd of 297 nM, a Response of 0.238 nm, a koff of 0.00199 s⁻¹ and a kon of 6690 M⁻¹ s⁻¹.

For “HSV2-gE_P317K V340R_gI (from UniProt P89475 21-416; P06764 21-256) (receptor)”, the Kd worked out at 241 nM, the Response was 0.508 nm, the koff is 0.00163 s⁻¹ and the kon was 6740 M⁻¹ s⁻¹.

As for “HSV2-gE_P317K V340W_gI (from UniProt P89475 21-416; P06764 21-256) (receptor)”, the dissociation constant (Kd) was 517 nM, the Response is 0.111 nm, the koff is 0.00348 s⁻¹ and the kon came out at 6740 M⁻¹ s⁻¹.

Substance “HSV2-gE_P317S S338G_gI (from UniProt P89475 21-416; P06764 21-256) (receptor)” had a dissociation constant (Kd) of 302 nM, a Response of 0.595 nm, a koff of 0.00453 s⁻¹ and a kon of 15000 M⁻¹ s⁻¹.

“HSV2-gE_P317S S338H_gI (from UniProt P89475 21-416; P06764 21-256) (receptor)”: the Kd is 154 nM, the Response turned out to be 0.516 nm, the koff came out at 0.0021 s⁻¹ and the kon came to 13600 M⁻¹ s⁻¹.

In turn, “HSV2-gE_P317S S338L_gI (from UniProt P89475 21-416; P06764 21-256) (receptor)” displayed an equilibrium dissociation constant (Kd) of 167 nM, a Response of 0.549 nm, a koff of 0.00163 s⁻¹ and a kon of 9770 M⁻¹ s⁻¹.

“HSV2-gE_P317S V340M_gI (from UniProt P89475 21-416; P06764 21-256) (receptor)” gave a Kd of 269 nM, a Response of 0.623 nm, a koff of 0.0039 s⁻¹ and a kon of 14500 M⁻¹ s⁻¹.

“HSV2-gE_P317S V340R_gI (from UniProt P89475 21-416; P06764 21-256) (receptor)” came in with a Kd of 277 nM, a Response of 0.403 nm, a koff of 0.00191 s⁻¹ and a kon of 6890 M⁻¹ s⁻¹.

“HSV2-gE_P317S V340W_gI (from UniProt P89475 21-416; P06764 21-256) (receptor)” returned a Kd of 351 nM, a Response of 0.131 nm, an off-rate (koff) of 0.00282 s⁻¹ and a kon of 8050 M⁻¹ s⁻¹.

Substance “HSV2-gE_P318D S338G_gI (from UniProt P89475 21-416; P06764 21-256) (receptor)” had a Kd of 330 nM, a Response of 0.143 nm, a koff of 0.00256 s⁻¹ and a kon of 7750 M⁻¹ s⁻¹.

“HSV2-gE_P318D S338H_gI (from UniProt P89475 21-416; P06764 21-256) (receptor)”: the Kd stood at 280 nM, the Response was 0.18 nm, the koff stood at 0.00215 s⁻¹ and the kon was found to be 7690 M⁻¹ s⁻¹.

In the case of “HSV2-gE_P318D S338L_gI (from UniProt P89475 21-416; P06764 21-256) (receptor)”, the Kd was 163 nM, the Response was 0.303 nm, the koff worked out at 0.00107 s⁻¹ and the kon is 6560 M⁻¹ s⁻¹.

Substance “HSV2-gE_P318I S338G_gI (from UniProt P89475 21-416; P06764 21-256) (receptor)” showed a Kd of 335 nM, a Response of 0.237 nm, a koff of 0.00297 s⁻¹ and a kon of 8870 M⁻¹ s⁻¹.

Turning to “HSV2-gE_P318I S338H_gI (from UniProt P89475 21-416; P06764 21-256) (receptor)”, the Kd was determined as 286 nM, the Response is 0.252 nm, the koff worked out at 0.0025 s⁻¹ and the kon turned out to be 8740 M⁻¹ s⁻¹.

In turn, “HSV2-gE_P318I S338L_gI (from UniProt P89475 21-416; P06764 21-256) (receptor)” returned a Kd of 152 nM, a Response of 0.411 nm, a koff of 0.00124 s⁻¹ and a kon of 8130 M⁻¹ s⁻¹.

Consider “HSV2-gE_P318R S338H_gI (from UniProt P89475 21-416; P06764 21-256) (receptor)”, for which the Kd stood at 5.32 nM, the Response is 0.192 nm, the off-rate constant (koff) came to 4.28e-05 s⁻¹ and the on-rate (kon) amounted to 8050 M⁻¹ s⁻¹.

For the substance “HSV2-gE_P318R S338L_gI (from UniProt P89475 21-416; P06764 21-256) (receptor)”, the Kd was found to be 176 nM, the Response was determined as 0.49 nm, the koff turned out to be 0.00138 s⁻¹ and the kon was found to be 7870 M⁻¹ s⁻¹.

Substance “HSV2-gE_P319G V340M_gI (from UniProt P89475 21-416; P06764 21-256) (receptor)” displayed a Kd of 297 nM, a Response of 0.393 nm, a koff of 0.00393 s⁻¹ and a kon of 13200 M⁻¹ s⁻¹.

The substance “HSV2-gE_P319G V340R_gI (from UniProt P89475 21-416; P06764 21-256) (receptor)” registered a Kd of 197 nM, a Response of 0.287 nm, a koff of 0.00137 s⁻¹ and a kon of 6960 M⁻¹ s⁻¹.

On to “HSV2-gE_P319G V340W_gI (from UniProt P89475 21-416; P06764 21-256) (receptor)”, for which the Kd turned out to be 385 nM, the Response is 0.106 nm, the koff came to 0.00249 s⁻¹ and the kon is 6460 M⁻¹ s⁻¹.

On to “HSV2-gE_P319L V340M_gI (from UniProt P89475 21-416; P06764 21-256) (receptor)”, for which the Kd worked out at 222 nM, the Response was 0.336 nm, the koff was 0.00216 s⁻¹ and the on-rate constant (kon) worked out at 9750 M⁻¹ s⁻¹.

“HSV2-gE_P319L V340R_gI (from UniProt P89475 21-416; P06764 21-256) (receptor)”: the Kd is 160 nM, the Response was 0.509 nm, the koff was found to be 0.00141 s⁻¹ and the kon is 8770 M⁻¹ s⁻¹.

The substance “HSV2-gE_P319L V340W_gI (from UniProt P89475 21-416; P06764 21-256) (receptor)” yielded a Kd of 230 nM, a Response of 0.139 nm, an off-rate (koff) of 0.00217 s⁻¹ and an association rate constant (kon) of 9450 M⁻¹ s⁻¹.

As for “HSV2-gE_R314G F322A_gI (from UniProt P89475 21-416; P06764 21-256) (receptor)”, the Kd was determined as 232 nM, the Response turned out to be 0.469 nm, the koff amounted to 0.00328 s⁻¹ and the association rate constant (kon) is 14200 M⁻¹ s⁻¹.

Substance “HSV2-gE_R314G F322I_gI (from UniProt P89475 21-416; P06764 21-256) (receptor)” gave a Kd of 272 nM, a Response of 0.291 nm, a koff of 0.00262 s⁻¹ and a kon of 9620 M⁻¹ s⁻¹.

For the substance “HSV2-gE_R314G F322P_gI (from UniProt P89475 21-416; P06764 21-256) (receptor)”, the Kd was determined as 181 nM, the Response was found to be 0.439 nm, the koff worked out at 0.00209 s⁻¹ and the kon came to 11500 M⁻¹ s⁻¹.

“HSV2-gE_R314G P318D_gI (from UniProt P89475 21-416; P06764 21-256) (receptor)” showed a Kd of 369 nM, a Response of 0.122 nm, a koff of 0.0033 s⁻¹ and a kon of 8930 M⁻¹ s⁻¹.

“HSV2-gE_R314G P318I_gI (from UniProt P89475 21-416; P06764 21-256) (receptor)” showed a Kd of 449 nM, a Response of 0.153 nm, an off-rate (koff) of 0.00278 s⁻¹ and a kon of 6200 M⁻¹ s⁻¹.

“HSV2-gE_R314G P318R_gI (from UniProt P89475 21-416; P06764 21-256) (receptor)” came in with a Kd of 148 nM, a Response of 0.22 nm, an off-rate (koff) of 0.000833 s⁻¹ and a kon of 5640 M⁻¹ s⁻¹.

“HSV2-gE_R314G V340M_gI (from UniProt P89475 21-416; P06764 21-256) (receptor)” displayed a Kd of 390 nM, a Response of 0.466 nm, a koff of 0.00401 s⁻¹ and a kon of 10300 M⁻¹ s⁻¹.
